Measured values published in paper PMC11096006 (Immunity, 2024).

Target: Linear di-ubiquitin (UniProt P0CG48 1-76; P0CG48 1-76)
Test: crystal structure

- binding result: binds
B1: N4BP1 CUE-like domain (Q845-D893) (domain or fragment, UniProt Q6A037 845-893, looked up)
chain: QRSSAETSELREALLKIFPDSEQKLKIDQILAAHPYMKDLNALSALVLD
